From publication PMC8809517, “Cofactor-independent RNA editing by a synthetic S-type PPR protein”
Where a chain is given by its changes, count along the chain named.

Tests used:
Test in all cases: high-throughput RNA pulldown from lysate on Ni-NTA beads; HRP: 50 mM Tris pH 8, 150 mM NaCl, 1 mM beta-mercaptoethanol, 50 ug/ml BSA, 3 ug/ml yeast RNA, 0.5% heparin; ITC and FP: Tris pH 8, 200 mM KCl, 5% glycerol; MST: 50 mM Tris pH 8, 200 mM NaCl, 1 mM DTT, BSA, heparin, 0.05% Tween 20
Conditions in all cases: tags: N-terminal His-eGFP
[1] = target: T1, GFP-9S library array, motif 4 ND N98Q;D124I (synthetic construct, N98Q;D124I)
T1 chain: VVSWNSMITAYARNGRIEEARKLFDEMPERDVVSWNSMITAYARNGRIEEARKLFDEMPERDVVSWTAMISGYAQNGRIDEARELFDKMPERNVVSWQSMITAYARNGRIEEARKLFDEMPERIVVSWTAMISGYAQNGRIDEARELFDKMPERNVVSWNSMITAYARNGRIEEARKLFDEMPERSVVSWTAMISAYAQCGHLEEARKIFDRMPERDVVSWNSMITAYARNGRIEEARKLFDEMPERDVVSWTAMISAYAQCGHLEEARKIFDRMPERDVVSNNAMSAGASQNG

[2] = target: T2, GFP-9S library array, motif 4 ND N98C;D124P (synthetic construct, N98C;D124P)
T2 chain: T1 chain with Q98C, I124P

[3] = target: T3, GFP-9S library array, motif 4 ND N98V;D124K (synthetic construct, N98V;D124K)
T3 chain: T1 chain with Q98V, I124K

[4] = target: T4, GFP-9S library array, motif 4 ND N98I;D124R (synthetic construct, N98I;D124R)
T4 chain: T1 chain with Q98I, I124R

[5] = target: T5, GFP-9S library array, motif 4 ND N98T;D124T (synthetic construct, N98T;D124T)
T5 chain: T1 chain with Q98T, I124T

B1: Cy5-rpoA-G (ssRNA)
RNA: AUUAGACGUGA
[1]; label: 5' Cy5
  Kd: 102 nM
[2]; label: 5' Cy5
  Kd: 321 nM
[3]; label: 5' Cy5
  Kd: 91.4 nM
[4]; label: 5' Cy5
  Kd: 97.3 nM
[5]; label: 5' Cy5
  Kd: 81.4 nM

B2: IR-rpoA-A (ssRNA)
RNA: AUUAAACGUGA
[1]; label: 5' IRDye 800CW
  Kd: 315 nM
[2]; label: 5' IRDye 800CW
  Kd: 263 nM
[3]; label: 5' IRDye 800CW
  Kd: 146 nM
[4]; label: 5' IRDye 800CW
  Kd: 168 nM
[5]; label: 5' IRDye 800CW
  Kd: 18.3 nM

B3: Cy5-rpoA (ssRNA)
RNA: AUUACACGUGA
[1]; label: 5' Cy5
  Kd: 142 nM
[2]; label: 5' Cy5
  Kd: 272 nM
[3]; label: 5' Cy5
  Kd: 97.1 nM
[4]; label: 5' Cy5
  Kd: 86.4 nM
[5]; label: 5' Cy5
  Kd: 83.1 nM

B4: IR-rpoA-U (ssRNA)
RNA: AUUAUACGUGA
[1]; label: 5' IRDye 800CW
  Kd: 344 nM
[2]; label: 5' IRDye 800CW
  Kd: 351 nM
[3]; label: 5' IRDye 800CW
  Kd: 128 nM
[4]; label: 5' IRDye 800CW
  Kd: 113 nM
[5]; label: 5' IRDye 800CW
  Kd: 63.1 nM
